According to US9840539B2, “High affinity digoxigenin binding proteins” (UNIVERSITY OF WASHINGTON THROUGH ITS CENTER FOR …, priority 2013, dated 2017):

B1: DIG10.3: DIG10.2 variant with C23S, H90L, V92A, A99Y, S103A, L105W; SEQ ID NO: 15 (protein)
chain: MNAKEIVVHALRLLENGDARGWSDLFHPEGVLEYPYPPPGYKTRFEGRETIWAHMRLFPEYMTIRFTDVQFYETADPDLAIGEFHGDGVLTASGGKLAYDYIAVWRTRDGQILLYRLFFNPLRVLEPLGGVEAAAKIVQGA
modifications: (130)..(141) amino acids are optionally absent
B2: DIG10.3 Y34F/Y99F/Y101F: DIG10.3 triple mutant, SEQ ID NO: 22 (protein)
chain: MNAKEIVVHALRLLENGDARGWSDLFHPEGVLEFPYPPPGYKTRFEGRETIWAHMRLFPEYMTIRFTDVQFYETADPDLAIGEFHGDGVLTASGGKLAFDFIAVWRTRDGQILLYRLFFNPLRVLEPLGGVEAAAKIVQGA
modifications: (130)..(141) amino acids are optionally absent
B3: DIG10.3 Y101F: DIG10.3 point mutant, SEQ ID NO: 19 (protein)
chain: MNAKEIVVHALRLLENGDARGWSDLFHPEGVLEYPYPPPGYKTRFEGRETIWAHMRLFPEYMTIRFTDVQFYETADPDLAIGEFHGDGVLTASGGKLAYDFIAVWRTRDGQILLYRLFFNPLRVLEPLGGVEAAAKIVQGA
modifications: (130)..(141) amino acids are optionally absent

Legend:
[1] = Fluorescence polarization equilibrium competition binding assay, unlabeled progesterone; settings: steroid progesterone; PBS pH 7.4, 25° C.; read-out: Inhibition Constant (Ki)
Protocol: (§1) Proteins were expressed in E. coli Rosetta 2 (DE3) cells with a C-terminal TEV protease cleavable His6 tag for biochemical assays. For crystallographic analysis of DIG10 variants, a 12-amino acid structurally disordered C-terminus deriving from the scaffold protein 1z1s was replaced directly with a His6 tag. Binding affinities were determined by equilibrium fluorescence polarization^30 on a SpectraMax M5e microplate reader by monitoring the anisotropy of DIG-conjugated Alexa488 as a function of protein concentration. Equilibrium fluorescence polarization competition assays were performed by examining the effect of increasing concentrations of unlabeled DIG, digitoxigenin, progesterone, and β-estradiol on the anisotropy of designed protein-DIG-conjugated Alexa488 complex.
(§2) Fluorescence polarization binding assays. Fluorescence polarization-based affinity measurements of designs and their evolved variants were performed as described^46 using Alexa488-conjugated DIG (DIG-PEG3-Alexa488). Fluorescence anisotropy (r) was measured in 96-well plate format on a SpectraMax M5e microplate reader (Molecular Devices) with λex=485 nM and λem=538 nM using a 515 nm emission cutoff filter. Fluorescence polarization equilibrium competition binding assays were used to determine the binding affinities of DIG10.3 and its variants for unlabeled digoxigenin, digitoxigenin, progesterone, β-estradiol, and digoxin. […]
(§3) Fluorescence polarization equilibrium competition binding assays. Fluorescence polarization equilibrium competition binding assays were used to determine the binding affinities of DIG10.3 and its variants for unlabeled digoxigenin, digitoxigenin, progesterone, β-estradiol, and digoxin. […] For each ligand concentration, a negative control sample containing only DIG-PEG3-Alexa488 and the appropriate dilution of a corresponding methanol-only control solution in PBS was measured.
(§4) Fluorescence anisotropy (r) was measured as noted above. […]

[2] = Fluorescence polarization equilibrium competition binding assay, unlabeled digitoxigenin; settings: steroid digitoxigenin; PBS pH 7.4, 25° C.; read-out: Inhibition Constant (Ki)
Protocol: as §1, §2, §3, §4

[3] = Fluorescence polarization equilibrium competition binding assay, unlabeled digoxigenin; settings: for Ki: steroid Digoxigenin (DIG), PBS pH 7.4, 25° C., read-out: Inhibition Constant (Ki)
Protocol: as §1
(§5) Fluorescence polarization binding assays. Fluorescence polarization-based affinity measurements of designs and their evolved variants were performed as described^46 using Alexa488-conjugated DIG (DIG-PEG3-Alexa488). Fluorescence anisotropy (r) was measured in 96-well plate format on a SpectraMax M5e microplate reader (Molecular Devices) with λex=485 nM and λem=538 nM using a 515 nm emission cutoff filter. Fluorescence polarization equilibrium competition binding assays were used to determine the binding affinities of DIG10.3 and its variants for unlabeled digoxigenin, digitoxigenin, progesterone, β-estradiol, and digoxin. The inhibition constant for each protein-ligand interaction, Ki, was calculated from the measured total unlabeled ligand producing 50% binding signal inhibition (I50) and the Kd of the protein-label interaction according to a model accounting for receptor-depletion conditions^46.
(§6) Fluorescence polarization equilibrium competition binding assays. Fluorescence polarization equilibrium competition binding assays were used to determine the binding affinities of DIG10.3 and its variants for unlabeled digoxigenin, digitoxigenin, progesterone, β-estradiol, and digoxin. […] Unlabeled stock solutions of digoxigenin, digitoxigenin, progesterone, and β-estradiol were prepared in methanol. Unlabeled stock solutions of digoxin were prepared in DMSO. Ligand stock solutions were 10 mM for DIG, digitoxigenin, and digoxin, and 1 mM for progesterone and β-estradiol. For each ligand concentration, a negative control sample containing only DIG-PEG3-Alexa488 and the appropriate dilution of a corresponding methanol-only control solution in PBS was measured.
(§7) Fluorescence anisotropy (r) was measured as noted above. In all experiments, PBS (pH 7.4) was used as the buffer system and the temperature was 25° C. The concentration of total unlabeled ligand producing 50% binding signal inhibition (I50) was determined by fitting a plot of the anisotropy averaged over a period of 30 min to 3 hr after reaction initiation versus unlabeled ligand concentration as described previously^47. For some experiments, limiting steroid concentrations made it impossible to collect data in the regime of complete inhibition. In these cases, data were fit by fixing the anisotropy at infinite steroid concentration to a value measured for other steroids for which this value could be determined experimentally. […]
The inhibition constant for each protein-ligand interaction, Ki, was calculated from the measured IC50 and the Kd of the protein-label interaction according to a model accounting for receptor-depletion conditions^47. […]

[4] = Fluorescence polarization equilibrium competition binding assay, unlabeled digoxin
Protocol: as §5
as §6, with “Ligand stock solutions were 10 mM for DIG, digitoxigenin, and digoxin, and 1 mM for progesterone and β-estradiol.” left out
as §7, with “In all experiments, PBS (pH 7.4) was used as the buffer system and the temperature was 25° C.” left out, “For some experiments, limiting steroid concentrations made it impossible to collect data in the regime of complete inhibition.” left out

[5] = Fluorescence polarization equilibrium competition binding assay, unlabeled β-estradiol; settings: steroid β-estradiol; PBS pH 7.4, 25° C.; read-out: Inhibition Constant (Ki)
Protocol: as §1, §2, §3, §4

Molecule	Ki [1]	Ki [2]	DIG binding affinity relative to widely used anti-DIG antibodies [3]	affinity for DIG (in words) [3]	Ki [3]	affinity for digoxin (in words) [4]	affinity for digoxin compared with DIG ([4]; competition FP)	Ki ([4]; steroid digoxin, PBS pH 7.4, 25° C., read-out: Inhibition Constant (Ki))	Ki [5]
B1	243 ± 91 nM	19 ± 7 nM	within a factor of two	picomolar affinity	0.653 ± 0.262 nM	picomolar affinity	slightly higher than that for DIG	0.223 ± 0.105 nM	2100 ± 800 nM
B2	< 17 nM	< 16 nM	–	–	580 ± 229 nM	–	–	–	1600 ± 600 nM
B3	30 ± 9 nM	< 3.8 nM	–	–	39 ± 8 nM	–	–	–	1700 ± 400 nM
